# Entries after “also recorded” stand apart in the source; their conditions may differ. Like-named read-outs stand apart in the source and are kept apart here.
# B1: Cpn60.1: chaperonin protein Chaperonin 60.1 of Mycobacterium tuberculosis, amino acid sequence shown in FIG. 25 (protein)
# chain: MSKLIEYDETARRAMEVGMDKLADTVRVTLGPRGRHVVLAKAFGGPTVTNDGVTVAREIELEDPFEDLGAQLVKSVATKTNDVAGDGTTTATILAQALIKGGLRLVAAGVNPIALGVGIGKAADAVSEALLASATPVSGKTGIAQVATVSSRDEQIGDLVGEAMSKVGHDGVVSVEESSTLGTELEFTEGIGFDKGFLSAYFVTDFDNQQAVLEDALILLHQDKISSLPDLLPLLEKVAGTGKPLLIVAEDVEGEALATLVVNAIRKTLKAVAVKGPYFGDRRKAFLEDLAVVTGGQVVNPDAGMVLREVGLEVLGSARRVVVSKDDTVIVDGGGTAEAVANRAKHLRAEIDKSDSDWDREKLGERLAKLAGGVAVIKVGAATETALKERKESVEDAVAAAKAAVEEGIVPGGGASLIHQARKALTELRASLTGDEVLGVDVFSEALAAPLFWIAANAGLDGSVVVNKVSELPAGHGLNVNTLSYGDLAADGVIDPVKVTRSAVLNASSVARMVLTTETVVVDKPAKAEDHDHHHGHAH
# How the values were obtained:
# [1] = system: ovalbumin challenged mice; details: previously demonstrated, Riffo-Vasquez et al. 2004; cited from earlier work
# [2] = system: bone marrow dendritic cells; experiment: LPS-induced IL12 production by dendritic cells after chaperonin pre-incubation; type: cell-based, Balb/c mice; details: pre-incubation 24 hours, then LPS (10 ng/ml) further 24 h; FIG. 6
# Description: (§1) Bone marrow cells from Balb/c mice were collected and cultured for 6 days in complete Dulbecco's Modified Eagle Medium containing 8 ng/ml of mouse GM-CSF. On day 6 of culture, the cells were collected, re-plated for 1 hour for removal of adherent cells, washed and plated at […] in 6-wells plates for analysis of surface markers expression and transference experiments and at 10^5 cells/well in 96-wells plate for cytokine measurements. In other experiments, cells were incubated at 10^6 cells/well for 24 h with the chaperonins and then another further 24 h with LPS (10 ng/ml).
# Pre-incubation of DC's with Cpn60.1 but not Cpn10 for 24 hours inhibited IL12 production induced by LPS (FIG. 6).
# [3] = system: bone marrow dendritic cells; experiment: IL-12 production by bone marrow dendritic cells pulsed with chaperonins; type: cell-based, Balb/c mice; details: 48 h; Cpn60.1 0.1-30 μg/ml, Cpn10 10 μg/ml; FIG. 5
# Description: as §1
# UV-treated rats = experiment: Ultra Violet Burn-induced hyperalgesia; type: in vivo, male Wistar rats; details: compared to the group treated with ibuprofen; FIGS. 16 and 17
# Description: (§2) The effect of Cpn60.1 has been investigated in 2 models of pain, Complete Freund's Adjuvant (CFA)-induced hyperalgesia and Ultra Violet Burn-induced hyperalgesia. Mechanical hyperalgesia was measured using Von Frey filaments applied with increasing force to the hind paw. Thermal hyperalgesia was measured using the time taken to withdraw the hind paw from a heat source. Cpn60.1 (50 & 500 μg/kg) was chronically administered to male Wistar rats (200 g) subcutaneously for 7 days. Every alternate day behavioural responses to mechanical and thermal allodynia were recorded. After baseline recordings, CFA was injected in to the hind paw to induce hyperalgesia and behavioural tests were performed. […] Another model of hyperalgesia was tested, this time using UV burn to induce allodynia. Again, Cpn60.1 had little effect at inhibiting hyperalgesia compared to the group treated with ibuprofen (FIGS. 16 and 17).
# [4] = system: ovalbumin challenged mice; type: in vivo; details: for recruitment of total cells to the airways / recruitment of eosinophils to the airways: intra-nasal; for recruitment of total cells to the airways: Cpn60.1 1 μg, FIG. 10; for recruitment of eosinophils to the airways: Cpn60.1 0.1 and 1 μg, peptide 4 0.005 μg, FIG. 11
# [5] = system: co-culture of dendritic cells and RD11.10 T cells; experiment: IL4 release in dendritic cell / T cell co-culture; type: cell-based, mice; details: DC pre-treated 10 μg/ml 24 h; […]; FIG. 7
# Description: as §1
# DC pre-treated with Cpn60.1 (10 μg/ml) or Cpn10 (10 μg/ml) for 24 h suppressed the release of IL4 from RD11.10 T cells in a DC/T cell co-culture. After 6 days of culture, cells were stimulated with anti-CD3 and anti-CD28 for further 24 hours and supernatants collected. IL5 and IL10 were not detected in this culture (FIG. 7).
# CFA-treated rats = experiment: Complete Freund's Adjuvant (CFA)-induced hyperalgesia; type: in vivo, male Wistar rats; details: 50 & 500 μg/kg subcutaneously for 7 days; compared to ibuprofen 100 mg/kg; FIGS. 14 and 15
# Description: as §2
# [6] = system: ovalbumin challenged mice; type: in vivo; details: 24 h after repeated ovalbumin challenge, 10 μg intra-tracheal
# Description: Allergic inflammation in the lung is induced by 2 intraperitoneal injections of 10 μg of ovalbumin (OVA) in 1 mg of alum with 7 days interval between them. Control animals receive alum only. On day 14, all animals are exposed to an aerosol of OVA for 25 minutes, once a day for 3 consecutive days. All measurements are performed 24 h after the last antigen challenge. […]
# [7] = system: spleen cells from TLR2KO mice; experiment: IL-12 release in spleen cells from TLR2KO mice; type: cell-based; details: FIG. 9
# [8] = system: spleen cells of C57Bl/6 mice; type: cell-based, C57BI/6 mice; details: 0.001-30 μg/ml, 24 h, polymixin B 5 μg/ml; FIG. 8
# LPS-treated mice = experiment: LPS-induced neutrophil recruitment to the lung (non-allergic inflammation); type: in vivo, Female Balb/c mice
# Description: Female Balb/c mice were pre-treated intranasally with Cpn60.1 (1 μg/ml) for 3 days in the absence or following pre-treatment with polymyxin B (5 μg/ml) to rule out any effect of LPS contamination. 30 minutes after the last dose of Cpn60.1, mice were treated with LPS (1 μg/ml). Neutrophil influx and TNF-alpha release in the lungs were determined by bronchoalveolar lavage 24 hours later.
# [9] = system: human peripheral blood monocytes; experiment: Human monocyte assay, TNF-alpha secretion (ELISA); type: cell-based
# Description: We have established a human monocyte assay to compare the efficacy of Cpn60.1 and various peptide sequences of this protein. Human monocytes were obtained by density-dependent centrifugation from peripheral venus blood from healthy volunteers. Monocytes were then isolated and purified with cells adjusted to a density of 2×10^6 cells/ml which were incubated for 1 hour 30 minutes. The plates were then washed twice with Hanks solution. 0.9 ml of RPMI medium was then added to each well followed by polymyxin-B (5 μg/ml). 30 minutes later, 0.1 ml of Cpn at 0.0001-1000 ng/ml or peptides were added to the wells. Cells were then incubated at 37° C., 5% CO2 for 1 hour. The medium was removed and cells washed. 0.9 ml of medium was added to each well followed by 0.1 ml of LPS (1 ng/ml) and left to incubate for 24 hours. Supernatant was taken from each well and frozen for Enzyme Linked Immunosorbent Assay (ELISA).
# [10] = system: spleen cells collected from TLR4KO mice; experiment: IL-12 release in spleen cells from TLR4KO mice; type: cell-based; details: FIG. 9
molecule,measurement,setting,value
B1,lung inflammation in a murine model of asthma,[1],suppressed
same,IL12 production induced by LPS,[2],inhibited
same,IL12 production by dendritic cells,[3],produced IL12 in a dose-dependant manner; also recorded: induced the release of IL-12 in a dose dependent-manner
same,UV burn-induced hyperalgesia (mechanical and thermal),UV-treated rats,little effect
same,recruitment of total cells to the airways,[4],significantly inhibited
same,recruitment of total cells to the airways,[4]; listed as Cpn60,inhibited
same,recruitment of eosinophils to the airways,[4],significant reduction
same,recruitment of eosinophils to the airways,[4]; listed as Cpn60,inhibited
same,levels of IL-5 in BAL fluid,"[4]; mouse, in vivo",not significantly inhibited; also recorded: not caused by an interference with the production of IL-5
same,levels of IL4 in DC/T cell co-culture,[5],suppressed
same,CFA-induced hyperalgesia (mechanical and thermal),CFA-treated rats,Neither dose of Cpn60.1 reduced CFA-induced hyperalgesia
same,bronchial hyper-responsiveness to methacholine,[6]; FIG. 2,reduced; also recorded: significantly inhibit
same,levels of cytokines in BAL fluid (cytokine release in the lung),[6]; FIG. 3,inhibited; also recorded: significantly inhibit
same,recruitment of eosinophils to the airways (airways inflammation),"[6]; percentage of eosinophils vs ovalbumin alone, FIG. 1",inhibited; also recorded: significantly inhibit
same,IL-12 response of TLR2KO spleen cells,[7],refractory
same,IL-12 release,[8],induce IL-12 release
same,TNF-alpha secretion in the lungs,"LPS-treated mice; intranasal 1 μg/ml for 3 days, LPS 1 μg/ml, lavage 24 hours later, FIG. 24",not significantly attenuated
same,LPS-induced neutrophilia (neutrophils recovered from lavage),"LPS-treated mice; intranasal 1 μg/ml for 3 days, LPS 1 μg/ml, lavage at 24 hours, FIG. 24",reduced LPS-induced neutrophilia; also recorded: suppression in neutrophilia
same,neutrophil recruitment with the substance alone,"LPS-treated mice; no LPS, FIG. 23",No neutrophil recruitment
same,effect of polymyxin B pre-treatment on suppression of neutrophil recruitment,LPS-treated mice; polymyxin B (5 μg/ml),made no difference
same,"TNF-alpha release induced by LPS, percent of control values","[9]; Cpn60.1 vs Cpn60.1 peptides, FIG. 21",suppress
same,concentration of maximum inhibition of LPS-induced TNF-α secretion,"[9]; although not significant, FIG. 18",1 ng/mL
same,TNF-alpha secretion induced by the substance alone,[9]; no LPS,able to stimulate human monocytes to induce TNF-alpha secretion
same,LPS-induced TNF-alpha secretion in the presence of polymyxin-B,"[9]; polymyxin-B 5 μg/ml, FIG. 19",suppresses
same,LPS-induced TNF-alpha secretion,"[9]; pre-treatment 1 hour, then LPS (1 ng/ml) 24 hours, FIGS. 18, 20",suppresses; also recorded: inhibited TNF-alpha secretion at low doses
same,IL-12 response of TLR4KO spleen cells compared to wild type C57bl/6,[10],reduced response; also recorded: significantly refractory

# Source: patent US9085632B2, “Biological materials and uses thereof” (PEPTINNOVATE LIMITED, priority 2008, dated 2015)
